In article PMC8087810, “Interfacing aptamers, nanoparticles and graphene in a hierarchical structure for highly selective detection of biomolecules in OECT devices”:

Biological target: alpha-thrombin (UniProt P00734;P00734 328-363;364-622)
Assay: OECT aptasensor (sigmoidal fit of delta ratio, EC50); EC50 of sensor response, 1-100 pM thrombin, Tris buffer; LoD 5.000±0.087 pM; surface-immobilized aptamer; Thrombin: Tris buffer (composition not in material); BSA: PBS (137 mM NaCl, 2.7 mM KCl, 10 mM Na2HPO4, 1.8 mM KH2PO4), pH 7.4 (Tris stated as same pH); BSA and

B1: TBA15 (thrombin binding aptamer, Fc/SH modified) (structured_DNA)
DNA: GGTTGGTGTGGTTGG
modifications: 5' ferrocene; 3' C6-SH thiol, immobilized on AuNPs-PMLG gate electrode, MCH blocked
With B1 as the binder, how does the “apparent K (half saturation)” value read?
Its value is 0.0489 nM.
